Measurements as given in doi:10.1101/2022.11.17.516996v1 (bioRxiv, 2022).

Tests used:
[1] = system: polarized hCMEC/D3 cell monolayers; assay: Energy dependent uptake of F-Aβ, flow cytometry with or without ATP depletion; assay type: in vitro ADME, human; conditions: 1 μM, 30 min; flow cytometry histograms
[2] = system: caveolin-1 phosphorylation on tyrosine 14; assay: Phospho-caveolin-1; assay type: cell-based, human; conditions: Src kinase inhibitor pretreatment before Aβ42; hCMEC/D3 cells; western blotting
[3] = system: lysosomal compartment; conditions: from 25 nM in extracellular fluid; ref [58]; cited from earlier work

F-Aβ42: fluorescently labeled soluble Aβ42
intra-endothelial accumulation in ATP depleted cells compared to control cells [1]: significantly reduced

F-Aβ40: fluorescently labeled soluble Aβ40
intra-endothelial accumulation in ATP depleted cells compared to control cells [1]: significantly reduced

Cc1ccc(-c2nn(C(C)(C)C)c3ncnc(N)c23)cc1 [PP1]
effect of pretreatment on Aβ42 induced caveolin-1 phosphorylation [2]: block the phosphorylation

amyloid beta peptide 42 [Aβ42]
concentration in the lysosomal compartment [3]: 2.5 µM
